Laboratory results from the supplement of paper PMC9170038.

System: MS2 coat protein
Assay: apparent KD of MS2 coat protein; designed switch direction (-1 OFF switch, 1 ON switch): -1; higher = weaker reporter binding
How it was run: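 SNAP-549-labelled MS2 coat protein was titrated, doubling from 0.7 or 1.5 nM to 3 µM, over designed RNA switches transcribed on Illumina chips by stalled E. coli RNA polymerase. Runs were done without input, with 200 uM small-molecule ligand, or with an oligonucleotide input. Apparent KD is the per-design median over clusters of curve-fitted normalised fluorescence.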

[1] = Eterna round: R95, input ligand: microRNA oligo, concentration not stated
[2] = Eterna round: R95, input ligand: FMN 200 uM
[3] = Eterna round: R95, input ligand: none
[4] = input ligand: microRNA oligo, concentration not stated

Row | Sequence | apparent KD of MS2 coat protein [1] | apparent KD of MS2 coat protein [2] | apparent KD of MS2 coat protein [3] | apparent KD of MS2 coat protein (input ligand: FMN 200 uM) | apparent KD of MS2 coat protein (input ligand: none) | apparent KD of MS2 coat protein [4]
1 | CUUUUGUGAGGAUAUCAGUAGUAAAAAAAUAAAAUUAUUACUGAGAAGGCACAUGAGGAUCACCCAUGUUCCUC [salish99_ex4_r3_028] (puzzle: Exclusion 4) | 36.3 nM | – | – | – | – | –
2 | UCAUGUUUAGAGGAUAUGAUUACUCUAGAGUGAUCAGAAGGCUAGACAUGAGGAUCACCCAUGUCAUAACAUGA [Exclusion 6 - B - 16:a] (puzzle: Exclusion 6) | 85.7 nM | 56.3 nM | 127 nM | – | – | –
3 | CCGUGGUUAGGAUAUUCGAAUGAGCACAUGAGGAUCACCCAUGUCUGAAUUGACAGCCGAGAAGAAGGAACCACUC [Eternabot (L2) Solution 24] (Eterna round: R97, puzzle: Exclusion 5) | – | – | – | 29.5 nM | 23.3 nM | –
4 | AUAAUGUGAGGAUAUCACGGCCCGGAGAAUCCGGUAAACGAUGAGAAGGCACAUGAGGAUCACCCAUGUUCCUG [EX4 A.4] (Eterna round: R97, puzzle: Exclusion 4) | – | – | – | 44.3 nM | 18.3 nM | –
5 | AGUAGUUGUUUCCGUUCUUACAUGAGGAUCACCCAUGUUUCUUGACGUGCACGCGAUGCUCGUCAGACUACCAGAUG [salish99_TOv1_r3_057] (Eterna round: R96, puzzle: Sensor v3, turn-off variant 1) | – | – | – | 60.5 nM | 57 nM | 37.4 nM
6 | AUUGAUAUUGAGGAUAUGCUUUUAUUUGUACUAGCAGAAGGCGAUACAUGAGGAUCACCCAUGUUUAUGGAAGU [JR_E6_Sub088] (puzzle: Exclusion 6) | 35.6 nM | 50.5 nM | 29.4 nM | – | – | –
7 | GCUGGUCGAGGAUAUGCAUUCGUGCUUCGGCACGUAAGGUCACAUGAGGAUCACCCAUGUAGAAGGUGACCAGC [E2/6-B1] (Eterna round: R97, puzzle: Exclusion 2) | – | – | – | 23.9 nM | 17.8 nM | –
8 | GGUCGGCGAGGAUAUACAUGAGGAUCACCCAUGUGAUAGAUUGCACGCGUACGUGUAUGUAGAAGGCGCUGACG [JL-ex3-3.30 salish99 mod] (Eterna round: R96, puzzle: Exclusion 3) | – | – | – | 433 nM | 32.8 nM | 24.7 nM
9 | GUACUGACAGGAUAUACAUGAGGAUCACCCAUGUGCCUUAUCGCUACAAAAGUAGCGGGUAGAAGGGUCUGUAC [Omei Ex3 Model Bachelor's Dilema v19] (Eterna round: R97, puzzle: Exclusion 3) | – | – | – | 41.8 nM | 16.4 nM | –
10 | UUGAUUCAUGUAGGAUAUGCGUGGCGAAGCUAUGCAGAAGGACAUGAGGAUCACCCAUGUGCUUGCGUCCGCGUACGGAUGCUA [JL ENG1 1.23] (Eterna round: R96, puzzle: Exclusion NG 1) | – | – | – | 154 nM | 165 nM | 107 nM
11 | CCCGAGGAAGGAUAUACAUGAGGAUCACCCAUGUGCGUUGGGACUGGCGUGGUCUUCAGUAGAAGGUCCGCGCC [Esdiza] (Eterna round: R97, puzzle: Exclusion 3) | – | – | – | 48.7 nM | 33.8 nM | –
12 | UAAAACGCAGAGGAUAUAUCAGAUCAAAGCUGCAUAGAAGGCUGCACAUGAGGAUCACCCAUGUGGUCUUUAAU [Mat - Exclusion 6 - JL Mod - D1] (Eterna round: R97, puzzle: Exclusion 6) | – | – | – | 206 nM | 20.6 nM | –
13 | AAGAAGCAAGGAUAUACAGAGGAGAGGAAAGCAAGAGGAGGACAUGAGGAUCACCCAUGUAGAAGGUGCAGAGA [JR_Exclu2_Sub019] (puzzle: Exclusion 2) | 68.8 nM | 67.4 nM | 63.5 nM | – | – | –
14 | GCACGGAUGGUAGGAUAUCCUUGCGAUUAGCAAGGAGAAGGACCACAUGAGGAUCACCCAUGUACCUCAAUUAUCCUUCCGUGC [Eli exng1 - 023] (Eterna round: R96, puzzle: Exclusion NG 1) | – | – | – | 12.7 nM | 15.8 nM | 9.18 nM
15 | CUGGCUUAGAGAGGAUAUGACAUUCAAGCCUACCCUGGCCACGGGCCACAUGAGGAUCACCCAUGUCAGAAGGCUCAGGCCAGA [Enorri] (Eterna round: R96, puzzle: Exclusion NG 2) | – | – | – | 61.7 nM | 32.8 nM | 25.5 nM
16 | AACAUGGUAAAGGAUAUUGUCGCAGAAUGCGAUCAAGAAGGUUACACAUGAGGAUCACCCAUGUGGAAUCCAUC [Eternabot (Original) Solution 24] (Eterna round: R97, puzzle: Exclusion 6) | – | – | – | 63.2 nM | 17.2 nM | –
17 | AAAUCCGCUGAGGAUAUUAUCAGUGAGAGCUGAUGAGAAGGCGGUACAUGAGGAUCACCCAUGUCUAUGGGCAA [Ex-6 Malc#25] (puzzle: Exclusion 6) | 208 nM | 358 nM | 295 nM | – | – | –

Row | Sequence | apparent KD of MS2 coat protein [1] | apparent KD of MS2 coat protein [2] | apparent KD of MS2 coat protein [3] | apparent KD of MS2 coat protein (input ligand: FMN 200 uM) | apparent KD of MS2 coat protein (input ligand: none) | apparent KD of MS2 coat protein [4]
18 | AAGUACCGGUGAGGAUAUUUUUAAUAGAACUUUAUGAUAUACAUGAGGAUCACCCAUGUUACUUUAAAGAAGGCAUCGGAUAAA [Mat - Exclusion NG 2 - Mod of JL - D87] (Eterna round: R96, puzzle: Exclusion NG 2) | – | – | – | – | – | 12 nM
19 | AAUUAGCAAGCGAGAUCCCACAUGAGGAUCACCCAUGUGCUCGUCUUAUAUAAGGUACUGUACGAAAGUACGGUACC [Mat - Sensor, turn-off var - Eli Mod - D31] (Eterna round: R97, puzzle: Sensor, turn-off variant 1) | – | – | – | 16.4 nM | 16.4 nM | –
20 | CUUUUGUGAGGAUAUUAGUAGUAAAAAAAUAAAAUUACUACUGAGAAGGCACAUGAGGAUCACCCAUGUUCCUC [salish99_ex4_r3_036] (puzzle: Exclusion 4) | 33.2 nM | – | – | – | – | –
21 | AUAGUAUAGCAAGGAUAUCGAUUUAGUUUGUUACGAGAAGGUGCUUUAGUUUAUACCUCUUGUUUACAUGAGGAUCACCCAUGU [JR_ExcNG1_Sub048] (Eterna round: R96, puzzle: Exclusion NG 1) | – | – | – | – | – | 19.4 nM
22 | UUUUAACAUGAGGAUCACCCAUGUGAGGAUAUCGUUAUUUAUAUUAAUAUUAAUAAAACGAGAAGGCACAUUUU [JMF 6] (puzzle: Exclusion 1) | 117 nM | – | – | – | – | –
23 | GAAAACGCAGGAUAUUAAUACUUAUACAUGAGGAUCACCCAUGUUUAUUGGGAUUAAGAAUAAGAAGGGCGAUGAA [EX5 #1] (Eterna round: R97, puzzle: Exclusion 5) | – | – | – | 30.8 nM | 24 nM | –
24 | UGAGCUUCAGGAUAUAUGUGGCGACCGUGAGGUCGAAGGUUACAUGAGGAUCACCCAUGUAGAAGGGAAGUUCU [Mat - Exclusion 2 - JL Mod - D19] (Eterna round: R97, puzzle: Exclusion 2) | – | – | – | 181 nM | 62.2 nM | –
25 | UAUACACAUGAGGAUCACCCAUGUGAGGAUAUGUAAAAAAAACCGACGGUUUUUUUUUACAGAAGGCACAUAUA [JR_Exclusion1_Sub026] (puzzle: Exclusion 1) | 52.5 nM | – | – | – | – | –
26 | UUAAAUCAUGUAGGAUAUGCAUAGCGAAGCUAUGCAGAAGGACAUGAGGAUCACCCAUGUGCUUGCGUCCGCGUACGGAUGCUA [Mat - Exclusion NG 1 - Mod of JL - D67] (Eterna round: R96, puzzle: Exclusion NG 1) | – | – | – | 423 nM | 123 nM | 84.4 nM
27 | GCACGGAGUGUAGGAUAUUAGUGCGAUUAGCACUGAGAAGGACAUGAGGAUCACCCAUGUUCCUCAUAAAUUAGCCUUCCGUGC [Eli exng1 - 037] (Eterna round: R96, puzzle: Exclusion NG 1) | – | – | – | 27.4 nM | 27 nM | 21 nM
28 | GGUGGACAUGAGGAUCACCCAUGUGAGGAUAUCGGCCGGCUAGUGGUGGCUGGCUUCUCGAGAAGGCGCAUAGU [Exclusion 1 V76] (puzzle: Exclusion 1) | 46.8 nM | – | – | – | – | –
29 | ACAAGCUUUUUGCAACAAGCAUUAAACUCUCAGAUCGUAACAUGAGGAUCACCCAUGUAAGUUUUAUGACGUCUUAU [JR_SV3TOV2_Sub095] (puzzle: Sensor v3, turn-off variant 2) | 18.1 nM | 20.8 nM | 22.9 nM | – | – | –
30 | CGGUGCUCGUGGAAACAUGAGGAUCACCCAUGUAGAGUUAGCGAGGAUAUCGGUAACACACAUCACGAGAAGGCGCGAACCUGU [Ex NG3 #6] (Eterna round: R96, puzzle: Exclusion NG 3) | – | – | – | 31.7 nM | 20.8 nM | 12.1 nM
31 | CUGGUCCGAGGAUAUAUUAAGUGAAACAUGAGGAUCACCCAUGUUAUUUAAUGGAUGUAAAUAGAAGGCGGACUAG [JL-ex5-3.12] (puzzle: Exclusion 5) | 37 nM | 29.9 nM | 42.8 nM | – | – | –
32 | UGAGCUUACGCAGGAUAUGAGGAUCACCCAUAGAAGGAUAUCGAAAGAGAAGGUCUGAGGAUUACCCAGAAGGGCGUGGGCUCU [pwkr exNG2 2xF5 2xFMN.11] (Eterna round: R96, puzzle: Exclusion NG 2) | – | – | – | 1290 nM | 131 nM | 125 nM
33 | CCGAAAAGGAAGGAUAUGCUAGACGAAAGUCUAGCAGAAGGUCCUACAUGAGGAUCACCCAUGUGGUCCUUCGG [Mat - Exclusion 6 - Eli Mod - D35] (Eterna round: R97, puzzle: Exclusion 6) | – | – | – | 1730 nM | 448 nM | –
34 | ACAUGAGGAUCACCCAUGUGACCACAAUGGCUGAUAUAGAAACAGGAUAUUCGUGAAUAUCUAACGAAGAAGGGUUAUGACUGG [Deportation 65 - Jieux - Exclusion NG 3] (Eterna round: R96, puzzle: Exclusion NG 3) | – | – | – | – | – | 61 nM
